Assay results reported in patent publication US20140038892A1.

These substances were tested against FGFR3-IIIc (UniProt P22607) (assay: cell-based or functional assay).
Chain of FGFR3-IIIc (P22607 23-806): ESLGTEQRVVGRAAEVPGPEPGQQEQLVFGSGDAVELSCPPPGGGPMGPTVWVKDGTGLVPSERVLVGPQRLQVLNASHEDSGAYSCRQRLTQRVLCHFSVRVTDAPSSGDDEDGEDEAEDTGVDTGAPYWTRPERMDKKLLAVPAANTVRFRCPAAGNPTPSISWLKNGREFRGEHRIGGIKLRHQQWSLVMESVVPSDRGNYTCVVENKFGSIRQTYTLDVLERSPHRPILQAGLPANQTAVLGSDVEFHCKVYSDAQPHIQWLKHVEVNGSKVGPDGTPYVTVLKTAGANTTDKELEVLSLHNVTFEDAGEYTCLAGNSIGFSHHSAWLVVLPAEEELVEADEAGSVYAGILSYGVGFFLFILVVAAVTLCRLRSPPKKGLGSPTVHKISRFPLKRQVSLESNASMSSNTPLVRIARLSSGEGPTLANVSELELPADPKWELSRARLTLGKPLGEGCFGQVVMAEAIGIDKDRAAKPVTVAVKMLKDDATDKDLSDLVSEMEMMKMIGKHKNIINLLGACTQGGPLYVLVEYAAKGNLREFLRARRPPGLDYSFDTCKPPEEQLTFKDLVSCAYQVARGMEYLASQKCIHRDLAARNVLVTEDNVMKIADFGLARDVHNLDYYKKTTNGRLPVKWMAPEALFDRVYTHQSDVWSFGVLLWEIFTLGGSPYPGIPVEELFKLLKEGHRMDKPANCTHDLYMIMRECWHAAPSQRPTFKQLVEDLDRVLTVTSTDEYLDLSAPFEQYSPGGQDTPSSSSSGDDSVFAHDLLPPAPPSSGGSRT

Chain of FGF18 Δ51 - HA (234 Kd) conjugate (O76093 52-207, tags or fused parts left off): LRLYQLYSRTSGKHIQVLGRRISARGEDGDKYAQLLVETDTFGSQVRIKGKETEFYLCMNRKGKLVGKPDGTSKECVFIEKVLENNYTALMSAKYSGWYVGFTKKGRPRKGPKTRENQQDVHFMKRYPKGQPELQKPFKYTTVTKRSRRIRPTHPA
Chain of FGF18 - HA (234 Kd) conjugate (O76093 28-207 limits assumed): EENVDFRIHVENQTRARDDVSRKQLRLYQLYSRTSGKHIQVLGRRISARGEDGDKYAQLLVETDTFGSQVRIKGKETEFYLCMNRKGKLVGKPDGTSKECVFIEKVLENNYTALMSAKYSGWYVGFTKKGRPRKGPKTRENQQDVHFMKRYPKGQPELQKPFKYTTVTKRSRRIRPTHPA
Chain of FGF18 w.t. (O76093 28-207 limits assumed): as above
Chain of FGF-18 delta33 (O76093 other isoform, or with tags, fused parts or gaps mutant limits assumed): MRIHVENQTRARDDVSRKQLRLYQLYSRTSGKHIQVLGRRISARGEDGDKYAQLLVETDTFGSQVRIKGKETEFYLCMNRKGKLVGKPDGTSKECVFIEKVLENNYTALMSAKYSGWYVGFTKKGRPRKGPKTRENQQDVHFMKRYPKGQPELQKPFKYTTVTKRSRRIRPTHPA
Chain of FGF18 Δ33 - HA (234 Kd) conjugate (O76093 34-207, tags or fused parts left off): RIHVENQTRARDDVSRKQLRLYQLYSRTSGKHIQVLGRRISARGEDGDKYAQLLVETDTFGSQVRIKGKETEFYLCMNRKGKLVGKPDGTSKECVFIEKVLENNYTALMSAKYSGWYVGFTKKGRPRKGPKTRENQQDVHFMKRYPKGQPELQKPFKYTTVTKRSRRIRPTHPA
Chain of FGF-18 delta51 (O76093 other isoform, or with tags, fused parts or gaps mutant limits assumed): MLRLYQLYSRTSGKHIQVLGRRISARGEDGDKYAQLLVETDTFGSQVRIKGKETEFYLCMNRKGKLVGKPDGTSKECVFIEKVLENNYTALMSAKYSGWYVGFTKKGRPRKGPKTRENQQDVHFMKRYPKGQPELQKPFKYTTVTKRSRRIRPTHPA

| Substance | Mitogenic activity in FDCP cell lines assay (EC50) [ng/mL] | Mitogenic activity, FGFR-transfected FDCP cell lines assay (EC50) [ng/mL] | Mitogenic activity FDCP-R3 (EC50) [ng/mL] | Mitogenic activity in FDCP cell lines assay, Conjugates EC50, +Hyaluronidase [ng/mL] | Mitogenic activity in FDCP cell lines assay, Conjugates EC50, -Hyaluronidase [ng/mL] |
| --- | --- | --- | --- | --- | --- |
| FGF2 (from UniProt P09038 134-288) (ligand) | 1 | 1 |  |  |  |
| FGF2 - CMC (90 Kd) conjugate (from UniProt P09038 134-288) (ligand) |  |  | < 3 |  |  |
| FGF2 - CMC (250 Kd) conjugate (from UniProt P09038 134-288) (ligand) |  |  | < 3 |  |  |
| FGF2 - HA (17 Kd) conjugate (from UniProt P09038 134-288) (ligand) |  |  | < 3 |  |  |
| FGF2 - HA (74 Kd) conjugate (from UniProt P09038 134-288) (ligand) |  |  | < 5 |  |  |
| FGF2 - HA (132 Kd) conjugate (from UniProt P09038 134-288) (ligand) |  |  | < 5 |  |  |
| FGF2 - HA (234 Kd) conjugate (from UniProt P09038 134-288) (ligand) |  |  | < 5 |  |  |
| FGF2 conjugate with HA-hyd (10% hydrazido groups) - BMPS (from UniProt P09038 134-288) (ligand) |  |  |  | < 5 | > 20 |
| FGF2 conjugate with HA-hyd (10% hydrazido groups) - EMCS (from UniProt P09038 134-288) (ligand) |  |  |  | < 5 | > 40 |
| FGF2 conjugate with HA-hyd (10% hydrazido groups) - GMBS (from UniProt P09038 134-288) (ligand) |  |  |  | < 5 | > 20 |
| FGF2 conjugate with HA-hyd (10% hydrazido groups) - SMPH (from UniProt P09038 134-288) (ligand) |  |  |  | < 5 | > 10 |
| FGF2 conjugate with HA-hyd (40% hydrazido groups) - BMPS (from UniProt P09038 134-288) (ligand) |  |  |  | > 15 | > 15 |
| FGF2 conjugate with HA-hyd (40% hydrazido groups) - SMPH (from UniProt P09038 134-288) (ligand) |  |  |  | < 5 | < 5 |
| FGF18 - HA (234 Kd) conjugate (from UniProt O76093 28-207) (ligand) |  |  | < 10 |  |  |
| FGF18 w.t. (from UniProt O76093 28-207) (ligand) |  | 5 |  |  |  |
| FGF18 Δ33 - HA (234 Kd) conjugate (from UniProt O76093 34-207) (ligand) |  |  | < 6.8 |  |  |
| FGF18 Δ51 - HA (234 Kd) conjugate (from UniProt O76093 52-207) (ligand) |  |  | < 12.5 |  |  |
| FGF-18 delta33 (from UniProt O76093 34-207) (ligand) |  | 3.5 |  |  |  |
| FGF-18 delta51 (from UniProt O76093 52-207) (ligand) |  | 5.5 |  |  |  |
